Results: patent publication US20250355001A1, “METHOD FOR DETECTING A TAU PROTEIN FRAGMENT IN A SAMPLE” (GTINVENT LIMITED, priority 2022, published 2025)

How the values were obtained:
hT40 = target: T1, hT40 (Homo sapiens, UniProt P10636); test: Sandwich ELISA limits of detection (LoD) of antibody pairs; assay type: binding; details: S1D12 mAb capture; hT40
T1 construct: Full length tau (hT40)
From the text: The diverse panel of high affinity anti-tau antibodies (scAb and mAb formats) were paired in various combinations and tested in a Sandwich (or Capture) ELISA format to calculate their limits of detection (LoD) and their ability to differentiate between different tau species. Biologically, tau exists in 6 different isoforms and is subjected to numerous post translational modifications, some of them playing a significant role in the progression of neurodegeneration.
For Sandwich ELISA using colourimetric detection, 96 well Maxisorp plates were coated with the capture antibody S1D12 mAb at 1 μg/ml for 1 h at RT followed by blocking with 2% MPBS as normal. Full length tau (hT40), at 1 μg/ml starting concentration was added to designated wells and double diluted across rest of the plates and left to incubate at R/T for 1 h. A series of detection scAbs with varying epitope recognition properties were added at 10 μg/ml to designated wells (FIG. 22). For colourimetric detection HRP conjugated anti-HuCk secondary antibody was used and the resulting immunoreaction was developed and absorbance at 450 nm measured as described previously. Cut-off point for a positive binding event was an absorbance value of 0.3 following background subtraction. In order to enhance the assay sensitivity, a chemiluminescent detection method was adopted where 50 μL SuperSignal ELISA Femto Substrate (Thermo Scientific) was added to each well following incubation with anti-HuCK HRP antibody and subsequent washing. The luminescence was read using Clariostar Plus microplate reader. A further modification to this protocol was done where various detection scAbs were directly conjugated with HRP and detected using chemiluminescent protocol as before. The lowest levels of detection achieved using different detection scAbs and a comparison of colourimetric and chemiluminescent methods of detection are shown in Table 28
Similarly, a sandwich ELISA format was set up using S1G2 mAb at 1 μg/ml as the capture antibody and HRP conjugated S1D12 mAb for detection. The assay was conducted using chemiluminescent protocol described above.

dGAE aggregates = dGAE aggregates (Homo sapiens, UniProt P10636); test: Sandwich ELISA on SDS/Triton X-100 treated dGAE aggregates; assay type: binding; parameters: key to LoD, 423 mAb capture, Untreated dGAE agg. / LoD, Direct immobilisation of dGAE aggregates, Untreated dGAE agg.: NB denotes no binding; details: untreated aggregates
Description: We have noticed Sodium dodecyl sulphate (SDS) can break apart dGA/dGAE aggregates and separate them into smaller fragments by performing an SDS-PAGE. This has been replicated and tested using an ELISA as described below.
For aggregation, 1000 μL 100 μM dGAE+10 μL 10 mM DTT was added to a ‘LoBind’ microfuge tubes and agitated at 700 RPM/37° C. for 24 hours. Resulting sample centrifuged at 17,000×g/4° C. for 60 min and supernatant discarded to remove left over monomer. Pellet resuspended in half the original volume for future experiments and hereafter referred to as ‘aggregates’. 1 μl of aggregates was added to 1 ml of PBS and SDS was added to a final concentration of 1% (w/v). This was left to incubate on lab bench for 1 h with gentle agitation every 15 minutes. In order to neutralize the SDS effect on ELISA, Triton X-100 added to a final concentration of 3% (v/v) and mixed gently by pipetting to prevent any bubble formation. 200 μl added of this mix was to the first well of an ELISA plate coated with 1 μg/ml S1D12 mAb and blocked with 2% MPBS. Similarly aggregates treated with only SDS or Triton X-100, untreated aggregates, dGAE monomers treated with only SDS or SDS+Titon X-100 were also added to designated wells as controls. All samples were then double diluted across the plate in final volumes of 100 μl. The final column was left with no protein to act as a blank. This was allowed to stand at room temperature for 1 hour followed by the addition of detection scAb-S1G2 at 10 μg/ml. Anti-HuCk HRP labelled secondary antibody was added as described previously and ELISA data generated was represented using the graph below.

dGAE aggregates, sequence (P10636 614-708): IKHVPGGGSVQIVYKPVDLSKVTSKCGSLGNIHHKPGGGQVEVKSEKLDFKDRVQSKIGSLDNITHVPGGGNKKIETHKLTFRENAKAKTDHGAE
T1 sequence (P10636 1-441 isoform P10636-8): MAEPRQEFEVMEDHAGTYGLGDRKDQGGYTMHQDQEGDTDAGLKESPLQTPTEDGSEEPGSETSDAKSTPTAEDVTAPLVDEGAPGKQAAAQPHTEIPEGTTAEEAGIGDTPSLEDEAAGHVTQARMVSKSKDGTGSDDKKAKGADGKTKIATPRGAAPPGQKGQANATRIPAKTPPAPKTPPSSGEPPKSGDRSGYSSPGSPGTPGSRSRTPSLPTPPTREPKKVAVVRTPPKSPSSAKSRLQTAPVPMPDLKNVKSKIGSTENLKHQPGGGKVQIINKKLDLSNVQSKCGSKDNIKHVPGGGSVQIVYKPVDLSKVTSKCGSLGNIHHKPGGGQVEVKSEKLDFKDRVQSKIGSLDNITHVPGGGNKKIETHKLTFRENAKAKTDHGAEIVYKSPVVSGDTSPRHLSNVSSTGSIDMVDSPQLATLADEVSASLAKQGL

LoD (ng/ml) direct HRP conjugation of detection scAb & chemiluminescence (hT40): 0.04 ng/mL
LoD, 423 mAb capture, Untreated dGAE agg. (dGAE aggregates; sandwich ELISA, 423 mAb capture): NB
LoD, S1D12 mAb capture, Untreated dGAE agg. (dGAE aggregates; sandwich ELISA, S1D12 mAb capture): 250 ng/mL
B1: S1G2: sheep-derived anti-tau core clone; scFv SEQ ID NO: 81, VH 455, VL 456 (protein)
scFv: QVQLQESGPSLVKPSQTLSLTCTVSGFSLTSNSVGWVRQAPGKAPEWVAGIDTDGEEGYNPALNSRLSITRDTSKSQVSLSLSSVTSEDTAVYYCGRSYRADGLAYGYVQAIDYWGPGLLVTVSSEGKSSGASGESKVDDQAVVTQPSSVSGSLGQRVSITCSGSFIGISSVGWFQQLPGSGLRTIIVASDGRPSGVPDRFSMSKSGNTATLTISSLQAEDEADYFCGSSDRTPYTGVFGSGTRLTVLG
modifications: S1G2 amino acid sequence
LoD, Direct immobilisation of dGAE aggregates, Untreated dGAE agg. (dGAE aggregates; direct immobilisation): NB
